Reference: publication PMC5986797, “Laminin heparin-binding peptides bind to several growth factors and enhance diabetic wound healing” (Nature Communications, 2018)

What was measured:
Parameters in all cases: species or system human
Conditions in all cases: 1 µg/mL LG domain coated; 1 μg/mL GF; vs BSA-coated wells; n = 4
VEGF-A165 = assay: ELISA: VEGF-A165 binding to laminin LG domain / laminin peptide
Description: ELISA tests were performed as described above. In brief, […] recombinant protein, laminin alpha 4 LG domain recombinant protein (R&D Systems), laminin alpha 5 LG domain recombinant protein (LD BioPharma), or laminin peptide (sequences are described in Supplementary Table 1, chemically synthesized by Genscript) in PBS for 2 h at 37 °C. A concentration of 1 μg/mL of BSA served as non-binding protein control. After blocking with 2% BSA PBS-0.05% Tween 20 (PBS-T) solution, 1 μg/mL of the recombinant human proteins (VEGF-A121, VEGF-A165, PlGF-1, PlGF-2, PDGF-BB, or FGF-2) or 10 μg/mL of biotinylated heparin (Sigma-Aldrich) were added. Bound GF was detected with biotinylated antibodies for human VEGF-A, PlGF, PDGF-BB (R&D Systems, Catalog No. DY220, 1:180 dilution), or FGF-2 (R&D Systems). The antibodies were detected by streptavidin-HRP (R&D Systems).

FGF-2 = assay: ELISA: FGF-2 binding to laminin LG domain / laminin peptide
Description: (§1) ELISA tests were performed as described above. In brief, ELISA plates were coated with 1 μg/mL of laminin alpha 3 LG domain recombinant protein, laminin alpha 4 LG domain recombinant protein (R&D Systems), laminin alpha 5 LG domain recombinant protein (LD BioPharma), or laminin peptide (sequences are described in Supplementary Table 1, chemically synthesized by Genscript) in PBS for 2 h at 37 °C. A concentration of 1 μg/mL of BSA served as non-binding protein control. After blocking with 2% BSA PBS-0.05% Tween 20 (PBS-T) solution, 1 μg/mL of the recombinant human proteins (VEGF-A121, VEGF-A165, PlGF-1, PlGF-2, PDGF-BB, or FGF-2) or 10 μg/mL of biotinylated heparin (Sigma-Aldrich) were added. Bound GF was detected with biotinylated antibodies for human VEGF-A, PlGF, PDGF-BB (R&D Systems, Catalog No. DY220, 1:180 dilution), or FGF-2 (R&D Systems). The antibodies were detected by streptavidin-HRP (R&D Systems).

PlGF-1 = assay: ELISA: PlGF-1 binding to laminin LG domain / laminin peptide
Description: as §1

PDGF-BB = assay: ELISA: PDGF-BB binding to laminin LG domain / laminin peptide
Description: as §1

PlGF-2 = assay: ELISA: PlGF-2 binding to laminin LG domain / laminin peptide
Description: as §1

VEGF-A121 = assay: ELISA: VEGF-A121 binding to laminin LG domain / laminin peptide
Description: as §1

B1: LAMA5_3026–3482: laminin alpha 5 LG domain recombinant protein (LD BioPharma) (protein)
chain: AIQVFLLGGSRKRVLVRVERATVYSVEQDNDLELADAYYLGGVPPDQLPPSLRRLFPTGGSVRGCVKGIKALGKYVDLKRLNTTGVSAGCTADLLVGRAMTFHGHGFLRLALSNVAPLTGNVYSGFGFHSAQDSALLYYRASPDGLCQVSLQQGRVSLQLLRTEVKTQAGFADGAPHYVAFYSNATGVWLYVDDQLQQMKPHRGPPPELQPQPEGPPRLLLGGLPESGTIYNFSGCISNVFVQRLLGPQRVFDLQQNLGSVNVSTGCAPALQAQTPGLGPRGLQATARKASRRSRQPARHPACMLPPHLRTTRDSYQFGGSLSSHLEFVGILARHRNWPSLSMHVLPRSSRGLLLFTARLRPGSPSLALFLSNGHFVAQMEGLGTRLRAQSRQRSRPGRWHKVSVRWEKNRILLVTDGARAWSQEGPHRQHQGAEHPQPHTLFVGGLPASSHSSKLP
bound: binding to VEGF-A165 (ELISA), recombinant LG domains (VEGF-A165) | binding to FGF-2 (ELISA), recombinant LG domains (FGF-2) | binding to PDGF-BB (ELISA), recombinant LG domains (PDGF-BB) | binding to PlGF-2 (ELISA), recombinant LG domains (PlGF-2)
did not show any binding: binding to PlGF-1 (ELISA), recombinant LG domains (PlGF-1) | binding to VEGF-A121 (ELISA), recombinant LG domains (VEGF-A121)
